Broadly, the fraction unbound is free concentration divided by total concentration. In general, logD refers to lipophilicity at a set pH, counting ionised and neutral species. A word on the Kd: it is the equilibrium constant for the complex coming apart.

A short description of data set [1]: in vitro. The conditions noted are these: human, plasma. The class given is in vitro ADME. The method, then: The protein binding properties of [^68Ga]Ga-DOTA-E(cRGDfK)2 in blood were investigated by protein precipitation. 1ml of the labeled complex and 3ml of human plasma were mixed and incubated for 1 hour at 37°C. Then, an equal volume of 10% trichloroacetic acid (TCA) was added, and samples were centrifuged at 3,000 rpm for 10 min […]. Precipitate was resuspended in 5% TCA and centrifuged at 3,000 rpm for 10 min. Precipitate and the supernatant fractions were analyzed for radioactivity in a gamma counter. Protein binding of [^68Ga]Ga-DOTA-E(cRGDfK)2 was expressed as the fraction of radioactivity bound to the protein, in percentage of the total radioactivity.

The nature of data set [2]: physchem. The class given is physicochemical. The conditions noted are these: pH 7.4. The method, then:
In a 5 ml Eppendorf tube, 100 μl of the radiolabelled peptide, 0.99 ml of PBS, pH 7.4, and 1 ml n-octanol were mixed. After intense vortexing for 8 min, the two layers were separated by centrifugation. Then, 500 μl aliquots of aqueous and organic layers were transferred to a new tube, radioactivity was measured in a well-type gamma counter (Delshid Gamma counter, Tehran, Iran), and partition coefficient (log P) values were calculated (n = 3).

Data set [3] relates to A549 tumor. Further details: species or system BALB/c mice. The conditions noted are these: mouse, in vivo. The method, then:
100 μg of [^68Ga]Ga-DOTA-E(cRGDfK)2 formulated in 100 μL saline was injected via the tail vein of 3 groups of 3 BALB/c mice. At 30, 60, and 90 min postinjection, mice were euthanized using a lethal dose of ketamine/xylazine, and blood was collected from the heart using a preheparinised syringe. Tumor and normal organs were excised, washed, weighed, and the radioactivity of each organ was determined using a well-type gamma counter. The organ uptake was measured as percent of the injected dose per gram of organ tissue (%ID/g). A blocking experiment was performed in the presence of a 500-fold excess of unlabeled DOTA-E(cRGDfK)2 30 min before [^68Ga]Ga-DOTA-E(cRGDfK)2 injection.
6–8 weeks female BALB/c mice (with body weights of 20–25 g) were purchased from Royan Insitute (Amol, Iran). Animals were housed in wire cages under controlled conditions of temperature at 25°C, relative humidity around 50%, and 12/12 h light/dark cycles with food, and water was given ad libitum. 2 × 10^6 cell suspensions of human lung adenocarcinoma A549 in 100 μl PBS were injected subcutaneously in the right dorsal flank of each mouse. Palpable tumor diameter was measured using digital calipers twice weekly. When tumor size reached a mean tumor volume of 50–100 mm^3, animals received a tail vein injection of 740 kBq of [^68Ga]Ga-DOTA-E(cRGDfK)2 in 100 μl normal saline. […]

In data set [4] the target is integrin αvβ3. As to conditions: cRGDfK as reference; cited from earlier work. The text has this:
Based on previous studies, multimeric cyclic RGD has higher (20–100 more) αvβ3 binding affinity than its monomeric alternatives. […] Many other works reported higher dissociation constant or lower affinity.

Consider `N=C(N)NCCC[C@@H]1NC(=O)[C@H](CCCCNC(=O)CC[C@H](NC(=O)CN2CCN(CC(=O)O)CCN(CC(=O)O)CCN(CC(=O)O)CC2)C(=O)NCCCC[C@@H]2NC(=O)[C@@H](Cc3ccccc3)NC(=O)[C@H](CC(=O)O)NC(=O)CNC(=O)[C@H](CCCNC(=N)N)NC2=O)NC(=O)[C@@H](Cc2ccccc2)NC(=O)[C@H](CC(=O)O)NC(=O)CNC1=O` [[^68Ga]Ga-DOTA-E(cRGDfK)2, metal not drawn], for which the “In vitro protein binding” value in data set [1] (1 h) turned out to be 2.88%. The fraction unbound at 1 h in data set [1] (In vitro protein binding) is over 0.95. Moreover, in data set [2], the logD was -3.97 ± 0.13. In addition, in data set [3], the Clearance result is “fast and via the renal system”; the “Uptake of radioactivity in the kidney and intestine” value is reported as “moderate uptake”.

Consider cRGDfK, for which the Kd in data set [4] is 1.3 µM.

(Values after article PMC7153000, “Radiosynthesis, Biological Evaluation, and Preclinical Study of a ^68Ga-Labeled Cyclic RGD Peptide as an Early Diagnostic Agent for Overexpressed αvβ3 Integrin Receptors in Non-Small-Cell Lung Cancer” (Contrast Media & Molecular Imaging, 2020).)
